This note sets out measurements from doi:10.1101/2025.08.28.672883 (2025).

Usually Kd stands for the concentration at which binding is half-saturated.

Values joined by “and” are separate entries in the source; they are usually repeats but may differ in a detail not shown here. Identical values can stand only once.

This assay has as its target SARS-CoV-2 spike receptor-binding domain, prototype (RBD-WT) (SARS-CoV-2, UniProt P0DTC2 333-528). Put plainly: BLI. For orientation: In BLI a coated tip is dipped into the sample, and binding shifts an interference pattern.

B1: VYD222 Fab (Fab, V domains shown)
VH: EVQLVESGGGLVKPGGSLRLSCAASGFTFGSYEMNWVRQAPGKGLEWVSSISEDGYSTYYPDSLKGRFTISRDSAKNSLYLQMNSLRADDTAVYYCARDFGGDTAWAGTGFTYWGQGTLVTVSS
VL: QSVLTQPPSVSGAPGQRITISCTGSSSNIGAGYDVHWYQQLPGTAPKLLIYGSSSRNYGVPDRFSGSKSGTSASLAITGLQAEDEADYYCQSYDSDLGVLYTFGTGTKVTVL
Turning to B1, the Kd was 5.4 nM and 5 nM.

B2: ADI-77310 Fab (Fab, V domains shown)
VH: EVQLVESGGGLVKPGGSLRLSCAASGFTFGSYYMNWVRQAPGKGLEWVSSISEDGYSTYYPDSLKGRFTISRDSAKNSLYLQMNSLRADDTAVYYCARDFGGHTAWAGTGFTYWGQGTLVTVSS
VL: QSVLTQPPSVSGAPGQRITISCTGSSSNIGAGYDVHWYQQLPGTAPKLLIYGSSSRNSGVPDRFSGSKSGTSASLAITGLQAEDEADYYCQSYDSDLSVLYTFGTGTKVTVL
Take B2: the Kd is 1 nM and 0.8 nM.
